According to PMC5016662:
pKi: −log10 of the molar value.

How the values were obtained:
[1] = target: recombinant F. hepatica cathepsin L2 (Fasciola hepatica); assay: enzyme inhibition kinetics (fluorogenic substrate, Morrison tight-binding fit); inhibitor serially diluted (20 to 0.1 nM) against each cysteine protease; 50 mM citrate phosphate buffer pH 5.5, 2 mM DTT, 0.01% Brij L23; 37 °C; substrate at its Km; Ki worked out from the apparent Ki
[2] = target: human cathepsin K (human) (UniProt P43235); assay: as above
[3] = target: human cathepsin L (human); assay: as above
[4] = target: recombinant F. hepatica cathepsin L1 (Fasciola hepatica); assay: as above
[5] = target: recombinant F. hepatica cathepsin L2 (Fasciola hepatica)
[6] = target: human cathepsin K (human) (UniProt P43235)
[7] = target: human cathepsin L (human)
[8] = target: recombinant F. hepatica cathepsin L1 (Fasciola hepatica)
[9] = target: bovine trypsin (bovine); assay: enzyme inhibition kinetics (fluorogenic substrate, Morrison tight-binding fit); inhibitor serially diluted against trypsin (42 nM); 100 mM sodium phosphate buffer pH 7.6, 1 mM HCl, 20 mM Ca, 0.01% Brij L23; substrate Z-Leu-Arg-NHMec
[10] = target: bovine trypsin (bovine)

Chain of human cathepsin K (human) (P43235 115-329): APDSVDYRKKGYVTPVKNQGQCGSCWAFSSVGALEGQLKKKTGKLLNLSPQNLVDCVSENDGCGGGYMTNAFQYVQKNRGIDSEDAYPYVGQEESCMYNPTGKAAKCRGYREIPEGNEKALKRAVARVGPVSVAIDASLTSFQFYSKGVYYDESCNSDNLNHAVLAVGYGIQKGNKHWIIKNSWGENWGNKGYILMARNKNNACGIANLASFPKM

| Substance | pKi [1] | pKi [2] | pKi [3] | pKi [4] | reduction of protease activity (fluorogenic substrate) by 300 nM rFhKT1 [5] | reduction of protease activity (fluorogenic substrate) by 300 nM rFhKT1 [6] | reduction of protease activity (fluorogenic substrate) by 300 nM rFhKT1 [7] | reduction of protease activity (fluorogenic substrate) by 300 nM rFhKT1 [8] | pKi [9] | reduction of trypsin activity (fluorogenic substrate) by 300 nM rFhKT1Leu15/Arg15 [10] |
| --- | --- | --- | --- | --- | --- | --- | --- | --- | --- | --- |
| recombinant Fasciola hepatica Kunitz-type protease inhibitor FhKT1 (natural protein) | 8.00 | 8.30 | 8.80 | 9.40 | 90.3% | 99.5% | 96.8% | 98.9% |  |  |
| recombinant FhKT1Leu15/Arg15 variant (natural protein) | 7.57 | 8.00 | 8.52 | 9.15 |  |  |  |  | 8.82 | 88.9% |
